Data published in patent publication US20140322204A1.

Tests used:
[1] = target: E1E2 of HCV genotype 3a isolate UKN3A13.6 (Hepatitis C virus genotype 3a); assay: cell-based or functional assay
[2] = target: E1E2 of HCV genotype 5 isolate UKN5.15.11 (Hepatitis C virus genotype 5); assay: cell-based or functional assay
[3] = target: H77 E1E2 mutant G418A (Hepatitis C virus genotype 1a strain H77) (UniProt P27958); assay: GNA capture EIA of E1E2 from HEK 293T cells
[4] = target: H77 E1E2 mutant N415A (Hepatitis C virus genotype 1a strain H77) (UniProt P27958); assay: GNA capture EIA of E1E2 from HEK 293T cells
[5] = target: H77 E1E2 mutant Q412A (Hepatitis C virus genotype 1a strain H77) (UniProt P27958); assay: GNA capture EIA of E1E2 from HEK 293T cells
[6] = target: H77 E1E2 mutant L413A (Hepatitis C virus genotype 1a strain H77) (UniProt P27958); assay: GNA capture EIA of E1E2 from HEK 293T cells
[7] = target: H77 E1E2 mutant W420A (Hepatitis C virus genotype 1a strain H77) (UniProt P27958); assay: GNA capture EIA of E1E2 from HEK 293T cells
412-423 branched peptide = 412-423 branched peptide (UniProt P27958); assay: antibody titration on the branched peptide (FIG. 10)

**Q.** Which IC50 of HCVpp neutralisation (ug/ml (printed p.g/ml)) [1] does the source give for monoclonal antibody AP33 here?
**A.** Its IC50 of HCVpp neutralisation (ug/ml (printed p.g/ml)) is 22.

**Q.** What about the IC50 of HCVpp neutralisation (ug/ml (printed p.g/ml)) [2] of the same substance?
**A.** Its IC50 of HCVpp neutralisation (ug/ml (printed p.g/ml)) is 0.6.

**Q.** And the reduction of binding compared to wild type [3]?
**A.** The reduction of binding compared to wild type was > 75%.

**Q.** What about the reduction of binding compared to wild type [4] of the same substance?
**A.** Its reduction of binding compared to wild type is > 75%.

**Q.** What about the enhancement of binding compared to wild type [5] of the same substance?
**A.** The enhancement of binding compared to wild type was 50%.

**Q.** What about the reduction of binding compared to wild type [6] of the same substance?
**A.** The reduction of binding compared to wild type was > 75%.

**Q.** And the reduction of binding compared to wild type [7]?
**A.** The reduction of binding compared to wild type was > 75%.

**Q.** And the fold lower concentration required to obtain 50% binding, against MAb 3/11 (412-423 branched peptide)?
**A.** The fold lower concentration required to obtain 50% binding, against MAb 3/11 was > 10 fold.
